Data: article PMC3711457, “Control of DNA minor groove width and Fis protein binding by the purine 2-amino group” (Nucleic Acids Research, 2013)

Tests used:
[1] = biological target: T1, Fis (wild type) (UniProt P0A6R3 1-98); experiment: EMSA; 50 ug/ml poly dI/dC; 60-fold better than F28; half-life 14 min; EMSA with 50 ug/ml poly dI/dC as in ref 19; buffer, salt, pH and temperature not stated in the material; conditions: protein: recombinant; chain copies: 2; label: 32P; 27 bp duplex
[2] = biological target: T2, Fis-K90A (UniProt P0A6R3 1-98, K90A); experiment: EMSA; 50 ug/ml poly dI/dC; binding largely restored; EMSA with 50 ug/ml poly dI/dC as in ref 19; buffer, salt, pH and temperature not stated in the material; conditions: protein: recombinant; chain copies: 2; label: 32P; 27 bp duplex
[3] = biological target: T1, Fis (wild type); experiment: EMSA; 50 ug/ml poly dI/dC; 230-fold better than F29; half-life 5 min; EMSA with 50 ug/ml poly dI/dC as in ref 19; buffer, salt, pH and temperature not stated in the material; conditions: protein: recombinant; chain copies: 2; label: 32P; duplex
[4] = biological target: T1, Fis (wild type); experiment: EMSA; 50 ug/ml poly dI/dC; EMSA with 50 ug/ml poly dI/dC as in ref 19; buffer, salt, pH and temperature not stated in the material; conditions: protein: recombinant; chain copies: 2; duplex
[5] = biological target: T2, Fis-K90A; experiment: as above; conditions: protein: recombinant; chain copies: 2; duplex
[6] = biological target: the molecule itself; experiment: crystal structure; Fis co-crystallized with DNA duplexes F28, F28-dI, F28-2AP and F29-dI; data collected at 100 K; molecular replacement with Fis-F1 (PDB 3IV5)
[7] = biological target: T1, Fis (wild type); experiment: X-ray crystallography; 2.7 A; EMSA with 50 ug/ml poly dI/dC as in ref 19; buffer, salt, pH and temperature not stated in the material; conditions: protein: recombinant; chain copies: 2; label: 32P; 27 bp duplex
[8] = biological target: T2, Fis-K90A; experiment: EMSA; 50 ug/ml poly dI/dC; essentially abolished; EMSA with 50 ug/ml poly dI/dC as in ref 19; buffer, salt, pH and temperature not stated in the material; conditions: protein: recombinant; chain copies: 2; label: 32P; 27 bp duplex
[9] = biological target: T1, Fis (wild type); experiment: EMSA; 50 ug/ml poly dI/dC; high-affinity reference, Kd in figure only; EMSA with 50 ug/ml poly dI/dC as in ref 19; buffer, salt, pH and temperature not stated in the material; conditions: protein: recombinant; chain copies: 2; label: 32P; 27 bp duplex
[10] = biological target: T2, Fis-K90A; experiment: EMSA; 50 ug/ml poly dI/dC; EMSA with 50 ug/ml poly dI/dC as in ref 19; buffer, salt, pH and temperature not stated in the material; conditions: protein: recombinant; chain copies: 2; label: 32P; 27 bp duplex
[11] = biological target: T1, Fis (wild type); experiment: X-ray crystallography; 2.8 A; EMSA with 50 ug/ml poly dI/dC as in ref 19; buffer, salt, pH and temperature not stated in the material; conditions: protein: recombinant; chain copies: 2; label: 32P; duplex

B1: F28-dI (dsDNA)
DNA 1: AAATTTGTTTGAGCGTTGAGCAAATTT
DNA 2: AAATTTGCTCAACGCTCAAACAAATTT
modifications: inosine replaces the guanines of the three central G/C pairs (ICI), on both strands
- Kd [1]: < 1 nM
- binding result [2]: binds

B2: F29-dI (dsDNA)
DNA 1: AAATTTGTTTGGGCGCTGAGCAAATTT
DNA 2: AAATTTGCTCAGCGCCCAAACAAATTT
modifications: inosine replaces the guanines of the five central G/C pairs (IICIC), on both strands
- binding signal [3]: ~8 fold worse than F1

B3: F27 (dsDNA)
DNA 1: AAATTTGTTTGAACTTTGAGCAAATTT
DNA 2: AAATTTGCTCAAAGTTCAAACAAATTT
- binding signal [4]: ~1 fold of F1 (indistinguishable)
- binding signal [5]: 10 fold worse than Fis-wt

B4: Fis protein (natural protein)
chain: MFEQRVNSDVLTVSTVNSQDQVTQKPLRDSVKQALKNYFAQLNGQDVNDLYELVLAEVEQPLLDMVMQYTRGNQTRAALMMGINRGTLRKKLKKYGMN
notes: also called Fis-wt; wild-type Fis
- binding result [6]: binds

B5: F28 (dsDNA)
DNA 1: AAATTTGTTTGAGCGTTGAGCAAATTT
DNA 2: AAATTTGCTCAACGCTCAAACAAATTT
- binding result [7]: binds
- binding result [8]: no binding

B6: F1 (dsDNA)
DNA 1: AAATTTGTTTGAATTTTGAGCAAATTT
DNA 2: AAATTTGCTCAAAATTCAAACAAATTT
- binding result [9]: binds
- binding signal [10]: ~1 fold of Fis-wt (indistinguishable)

B7: F28-2AP (dsDNA)
DNA 1: AAATTTGTTTGAATATTGAGCAAATTT
DNA 2: AAATTTGCTCAATATTCAAACAAATTT
modifications: 2-aminopurine in three central 2AP/T pairs (2T2), on both strands
- binding result [11]: binds

B8: F30 (dsDNA)
DNA 1: AAAGCGGTTTGAATTTTGAGCCGCTTT
DNA 2: AAAGCGGCTCAAAATTCAAACCGCTTT
- binding signal [5]: 9 fold worse than Fis-wt
